Patent US10849992B1, “Methods of screening for sortilin binding antagonists” (ALECTOR LLC, priority 2015, dated 2020)
Entries after “also recorded” stand apart in the source; their conditions may differ.

Key:
[1] = target: T1, Sortilin (Homo sapiens, UniProt Q99523); test: Cell-based microscopy assay: DyLight-650 PGRN binding and endocytosis; set-up: expressed in transfected cells; host or cells: HEK293T; conditions: 10 μM blocker with 40 nM DyLight-650 PGRN, listed as sortilin pro-peptide
T1 sequence (Q99523 78-831): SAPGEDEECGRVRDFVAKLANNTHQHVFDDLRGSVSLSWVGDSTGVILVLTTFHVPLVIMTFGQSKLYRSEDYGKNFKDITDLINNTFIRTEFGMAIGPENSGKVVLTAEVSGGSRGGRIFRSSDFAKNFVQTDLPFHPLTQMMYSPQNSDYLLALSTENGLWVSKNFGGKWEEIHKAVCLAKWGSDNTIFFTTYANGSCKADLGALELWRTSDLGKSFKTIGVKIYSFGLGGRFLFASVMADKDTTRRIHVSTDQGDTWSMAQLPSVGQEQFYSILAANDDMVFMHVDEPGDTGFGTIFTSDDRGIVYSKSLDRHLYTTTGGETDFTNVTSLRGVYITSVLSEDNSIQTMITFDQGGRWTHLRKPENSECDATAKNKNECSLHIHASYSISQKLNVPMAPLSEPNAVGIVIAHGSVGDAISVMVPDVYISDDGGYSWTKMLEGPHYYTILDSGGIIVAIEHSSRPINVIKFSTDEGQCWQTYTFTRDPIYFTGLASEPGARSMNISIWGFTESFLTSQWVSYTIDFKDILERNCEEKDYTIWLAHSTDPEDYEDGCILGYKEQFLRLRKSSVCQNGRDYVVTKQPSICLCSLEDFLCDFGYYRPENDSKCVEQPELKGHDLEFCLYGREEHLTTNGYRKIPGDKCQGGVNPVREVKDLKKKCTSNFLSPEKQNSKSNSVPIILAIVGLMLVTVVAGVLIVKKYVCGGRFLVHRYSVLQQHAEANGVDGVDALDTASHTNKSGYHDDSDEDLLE
Experimental: HEK293T cells were transiently transfected with constructs for expressing sortilin or LacZ (control) and incubated with PGRN labeled using DyLight-650 (Life Technologies, Carlsbad, Calif.) for up to 60 minutes at 37° C. Binding and endocytosis of PGRN were observed by fluorescence microscopy. Recombinant human Progranulin (Adipogen) was labeled with DyLight 650 (Life Technologies, Carlsbad, Calif.). Cells were transiently transfected with human Sortilin or lacZ (control) and GFP using Fugene and harvested after 24 h. GFP was either expressed by a second vector (Topo3.3, Invitrogen) or located on the same vector, separated by an IRES (pCMV6-AC-IRES-GFP, Origene). Full-length Sortilin was used either untagged (Topo3.3) or with a C-terminal myc tag (pCMV6-AC-IRES-GFP). Cells were then plated on microscopy chambered glass slides coated with poly-1-lysine. After 4-6 h, cells were washed in OptiMem serum-free media, and 40 nM Progranulin-650 was added with or without 10 uM Sortilin pro-peptide as a blocker. Cells were incubated at 37° C. for up to 60′. Subsequently, cells were fixed in 4% paraformaldehyde, washed in PBS and imaged on a Nikon fluorescent microscope.

[2] = target: T1, Sortilin; test: FACS assay: sortilin-mediated PGRN-DyLight650 binding and endocytosis; assay type: cell-based; set-up: Full-length Sortilin was used either untagged (Topo3.3) or with a C-terminal myc tag (pCMV6-AC-IRES-GFP); myc (only in the pCMV6-AC-IRES-GFP construct); expressed in transfected cells; host or cells: HEK293T; conditions: FIG. 10B
Description: Sortilin-expressing cells were GFP-positive, and untransfected cells were GFP-negative (as labeled in FIG. 10A).
A second assay was developed using DyLight-650-conjugated PGRN protein. In this assay, binding and endocytosis of PGRN were observed using either fluorescence microscopy (FIG. 9A-9F) or FACS (FIGS. 10A and 10B).

[3] = target: T1, Sortilin; test: Cell-based PGRN-conditioned media assay (PGRN ELISA); set-up: expressed in transfected cells; host or cells: HEK293T; conditions: sortilin-expressing HEK293T; 36-48 h; 1 or 10 μM pro-peptide, 6.7 or 67 nM antibody
Experimental: HEK293T cells were transiently transfected with constructs for expressing sortilin or LacZ (control) and incubated with PGRN-conditioned media collected from PGRN transfected HEK293T cells. PGRN levels remaining in the media were measured after 36-48 h using a PGRN ELISA Duoset kit (R&D Systems). Cells were incubated with 1 or 10 μM sortilin pro-peptide, 6.7 nM or 67 nM goat anti-sortilin antibody (SORT1 Ab), or 67 nM control IgG.
To prepare hPGRN-conditioned media, Hek293T cells were transiently transfected with full-length, untagged human PGRN (pCMV-Sport6, Thermo Scientific) using Fugene HD (Promega). Media containing PGRN was collected after 48 h. For the experiment, Hek293T cells were transiently transfected with human Sortilin (untagged in Topo3.3) or lacZ (control, Topo3.3) using Fugene HD. After 4-6 h, media containing a 1:5 dilution of PGRN conditioned media was added to the cells with or without blockers [1 or 10 uM Sortilin pro-peptide; 6.7 or 67 nM goat anti-Sortilin antibody (SORT1 Ab, R&D Systems, AF3154) or control IgG (R&D Systems, AB-108-C)]. Cell supernatant was collected after 48 h and analyzed using a PGRN Elisa Duoset kit (R&D Systems, DY2420).

sortilin pro-domain peptide: peptide of the Sortilin1 pro-domain used as a blocker of PGRN binding (QDRLDAPPPPAAPLPRWSGPIGVSWGLRAAAAGGAFPRGGRWRR)
PGRN binding and endocytosis (DyLight-650 fluorescence) [1]: not observed; also recorded: little signal
blocking of PGRN binding to transfected cells [2]: blocked
PGRN levels in the media (rescue of sortilin-mediated reduction) [3]: partially rescued
